Measurements from patent publication US6368809.

Target: HA-epitope tagged E2F-4 (human) (UniProt Q16254)
Assay: cell-based or functional assay

Sequence of UniProt Q16254 (Q16254 whole entry): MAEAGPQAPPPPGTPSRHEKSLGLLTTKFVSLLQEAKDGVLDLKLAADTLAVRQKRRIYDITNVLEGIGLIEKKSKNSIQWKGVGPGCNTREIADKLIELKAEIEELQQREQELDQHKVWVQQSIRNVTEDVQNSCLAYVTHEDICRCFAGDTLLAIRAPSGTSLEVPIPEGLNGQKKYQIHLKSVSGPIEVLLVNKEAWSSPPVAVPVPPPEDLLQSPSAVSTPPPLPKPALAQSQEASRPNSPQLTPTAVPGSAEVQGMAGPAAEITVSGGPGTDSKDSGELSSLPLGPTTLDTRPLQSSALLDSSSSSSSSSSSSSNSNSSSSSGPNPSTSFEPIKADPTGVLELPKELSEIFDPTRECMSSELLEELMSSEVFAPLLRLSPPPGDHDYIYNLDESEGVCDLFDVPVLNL

HA-tagged p107 (from UniProt P28749 1-1068)
E2F-4 half life (pulse chase, immunoprecipitation with 12CA5, phosphorimager; free E2-F4 approximately 2-3 hours): 8 h
